Source: article PMC11889887 (2025)
Bridge positions count the residues as written; N and C are the ends. Square brackets hold non-standard residues; d marks the D form. Ends that are not written are not given here. Lys(N3) = [N-]=[N+]=NCCCC[C@H](N)C(=O)O; Pra = C#CC[C@H](N)C(=O)O

Legend:
[1] = target: T1, biotinylated recombinant human αvβ6 integrin (human, UniProt P06756 31-1048; P18564 22-709, biotin (chain and site not stated) | biotin (chain and site not stated)); test: ELISA; competition with latent TGFβ1
T1 chain 1: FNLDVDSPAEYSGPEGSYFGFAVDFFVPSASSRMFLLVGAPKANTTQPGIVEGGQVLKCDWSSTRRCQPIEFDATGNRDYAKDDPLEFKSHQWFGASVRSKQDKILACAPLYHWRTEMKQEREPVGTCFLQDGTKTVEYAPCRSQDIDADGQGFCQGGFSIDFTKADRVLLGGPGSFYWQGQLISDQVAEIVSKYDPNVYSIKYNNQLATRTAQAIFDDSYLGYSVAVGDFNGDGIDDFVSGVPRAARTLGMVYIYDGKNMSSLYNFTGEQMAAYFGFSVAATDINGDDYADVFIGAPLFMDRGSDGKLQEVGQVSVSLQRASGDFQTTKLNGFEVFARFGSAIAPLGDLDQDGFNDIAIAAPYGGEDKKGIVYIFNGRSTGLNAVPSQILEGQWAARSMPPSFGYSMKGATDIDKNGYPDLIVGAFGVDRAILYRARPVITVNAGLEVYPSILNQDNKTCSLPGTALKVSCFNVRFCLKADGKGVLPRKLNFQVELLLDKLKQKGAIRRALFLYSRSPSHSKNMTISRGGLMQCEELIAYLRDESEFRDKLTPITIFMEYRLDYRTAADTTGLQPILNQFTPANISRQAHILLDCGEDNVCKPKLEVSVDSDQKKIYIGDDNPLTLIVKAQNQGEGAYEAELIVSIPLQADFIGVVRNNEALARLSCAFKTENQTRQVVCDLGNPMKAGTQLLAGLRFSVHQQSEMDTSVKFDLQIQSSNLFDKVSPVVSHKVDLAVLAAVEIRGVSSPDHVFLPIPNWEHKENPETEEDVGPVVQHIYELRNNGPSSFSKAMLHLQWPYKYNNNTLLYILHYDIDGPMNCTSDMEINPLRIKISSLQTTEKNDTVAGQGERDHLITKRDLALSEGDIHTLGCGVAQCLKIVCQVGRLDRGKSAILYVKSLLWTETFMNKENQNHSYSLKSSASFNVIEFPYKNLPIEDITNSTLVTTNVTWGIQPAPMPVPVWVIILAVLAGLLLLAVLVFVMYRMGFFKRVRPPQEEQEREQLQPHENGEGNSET
T1 chain 2: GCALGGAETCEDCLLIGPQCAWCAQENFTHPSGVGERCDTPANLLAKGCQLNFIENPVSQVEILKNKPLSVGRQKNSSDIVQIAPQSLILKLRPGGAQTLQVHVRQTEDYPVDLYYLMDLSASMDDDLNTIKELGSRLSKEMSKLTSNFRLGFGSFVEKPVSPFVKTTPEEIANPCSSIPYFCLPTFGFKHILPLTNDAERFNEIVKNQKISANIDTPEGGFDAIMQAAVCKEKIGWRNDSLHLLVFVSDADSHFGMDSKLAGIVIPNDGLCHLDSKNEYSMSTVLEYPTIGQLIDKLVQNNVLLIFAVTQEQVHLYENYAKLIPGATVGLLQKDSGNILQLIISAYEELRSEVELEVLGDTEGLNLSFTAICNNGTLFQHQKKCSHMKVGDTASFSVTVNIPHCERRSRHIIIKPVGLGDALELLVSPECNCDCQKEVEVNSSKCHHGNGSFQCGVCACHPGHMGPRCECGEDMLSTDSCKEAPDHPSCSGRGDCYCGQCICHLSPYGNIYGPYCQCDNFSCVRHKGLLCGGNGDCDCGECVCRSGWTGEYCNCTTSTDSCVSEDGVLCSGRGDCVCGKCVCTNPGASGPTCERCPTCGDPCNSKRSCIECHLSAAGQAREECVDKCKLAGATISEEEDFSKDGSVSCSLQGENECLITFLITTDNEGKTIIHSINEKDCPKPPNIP

[2] = target: T2, biotinylated recombinant human αvβ8 integrin (human, UniProt P06756 31-1048; P26012 43-684, biotin (chain and site not stated) | biotin (chain and site not stated)); test: ELISA; competition with latent TGFβ1
T2 chain 1: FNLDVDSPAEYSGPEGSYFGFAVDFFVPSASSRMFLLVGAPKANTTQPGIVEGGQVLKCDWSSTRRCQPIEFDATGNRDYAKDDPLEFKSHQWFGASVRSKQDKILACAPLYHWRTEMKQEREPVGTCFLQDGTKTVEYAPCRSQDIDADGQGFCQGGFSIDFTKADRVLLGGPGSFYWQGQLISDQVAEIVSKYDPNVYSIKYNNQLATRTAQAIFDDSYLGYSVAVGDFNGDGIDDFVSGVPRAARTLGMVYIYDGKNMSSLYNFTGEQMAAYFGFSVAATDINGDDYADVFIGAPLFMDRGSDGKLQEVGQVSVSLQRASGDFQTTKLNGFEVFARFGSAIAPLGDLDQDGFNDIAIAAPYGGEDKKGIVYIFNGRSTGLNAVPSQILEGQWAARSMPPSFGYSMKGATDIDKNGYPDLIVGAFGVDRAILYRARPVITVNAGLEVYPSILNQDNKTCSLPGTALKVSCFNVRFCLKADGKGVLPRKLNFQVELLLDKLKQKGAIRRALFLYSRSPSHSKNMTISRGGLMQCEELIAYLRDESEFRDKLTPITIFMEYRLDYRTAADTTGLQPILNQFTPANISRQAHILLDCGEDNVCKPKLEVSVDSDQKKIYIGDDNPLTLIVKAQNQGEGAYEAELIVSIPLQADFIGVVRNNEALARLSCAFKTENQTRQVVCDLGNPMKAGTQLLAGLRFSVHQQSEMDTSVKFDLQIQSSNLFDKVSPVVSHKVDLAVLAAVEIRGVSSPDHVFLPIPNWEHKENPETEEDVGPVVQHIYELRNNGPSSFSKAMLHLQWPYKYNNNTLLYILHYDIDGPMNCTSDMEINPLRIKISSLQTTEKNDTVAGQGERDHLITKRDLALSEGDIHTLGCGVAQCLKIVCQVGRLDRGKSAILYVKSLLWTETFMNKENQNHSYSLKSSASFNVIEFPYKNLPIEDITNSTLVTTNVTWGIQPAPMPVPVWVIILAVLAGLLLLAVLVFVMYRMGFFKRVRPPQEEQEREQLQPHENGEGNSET
T2 chain 2: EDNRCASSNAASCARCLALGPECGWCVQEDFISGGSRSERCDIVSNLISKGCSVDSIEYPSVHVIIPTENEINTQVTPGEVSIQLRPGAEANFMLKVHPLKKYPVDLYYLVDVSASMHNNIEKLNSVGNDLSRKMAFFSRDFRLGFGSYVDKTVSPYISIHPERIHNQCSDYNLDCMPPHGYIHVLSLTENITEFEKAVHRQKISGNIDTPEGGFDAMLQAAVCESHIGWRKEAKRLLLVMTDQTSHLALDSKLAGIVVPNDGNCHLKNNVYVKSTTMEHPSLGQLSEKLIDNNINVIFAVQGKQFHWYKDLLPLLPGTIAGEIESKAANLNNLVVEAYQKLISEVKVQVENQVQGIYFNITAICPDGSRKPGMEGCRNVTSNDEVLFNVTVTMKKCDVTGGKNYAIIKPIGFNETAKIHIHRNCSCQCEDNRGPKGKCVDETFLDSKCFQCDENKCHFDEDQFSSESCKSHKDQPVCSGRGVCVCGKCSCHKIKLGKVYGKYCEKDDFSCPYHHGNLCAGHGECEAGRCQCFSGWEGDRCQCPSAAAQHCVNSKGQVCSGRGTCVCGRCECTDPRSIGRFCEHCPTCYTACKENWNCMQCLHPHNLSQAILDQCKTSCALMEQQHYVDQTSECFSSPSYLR

Ki [1]: 0.139 nM
Ki [2]: 2.74 nM
Binder: CFETLRGDLRILSILR[Pra]QNL[Lys(N3)]KELQD-NH2 (triazole 17-21) [peptide 5a (chromogranin A-derived peptide)]
